The values below come from article PMC6020293, “In Vitro Reconstitution of Functional Type III Protein Export and Insights into Flagellar Assembly” (mBio, 2018).

The data set deals with the molecule itself. In words: co-sedimentation; purified FlgE (4 µM) transported into inverted membrane vesicles with FlgD (0.6 or 4 µM), FliH2/FliI complex, FliJ and 5 mM ATP; after proteinase K and Triton X-100 centrifuged at 150,000 x g for 30 min; supernatant and precipitate immunoblotted; hook forms on the basal body inside the vesicle. (In general: In western blotting, separated proteins are transferred to a membrane and probed.)

B1: FlgE (natural protein)
chain: MSFSQAVSGLNAAATNLDVIGNNIANSATYGFKSGTASFADMFAGSKVGLGVKVAGITQDFTDGTTTNTGRGLDVAISQNGFFRLVDSNGSVFYSRNGQFKLDENRNLVNMQGMQLTGYPATGTPPTIQQGANPAPITIPNTLMAAKSTTTASMQINLNSTDPVPSKTPFSVSDADSYNKKGTVTVYDSQGNAHDMNVYFVKTKDNEWAVYTHDSSDPAATAPTTASTTLKFNENGILESGGTVNITTGTINGATAATFSLSFLNSMQQNTGANNIVATNQNGYKPGDLVSYQINNDGTVVGNYSNEQEQVLGQIVLANFANNEGLASQGDNVWAATQASGVALLGTAGSGNFGKLTNGALEASNVDLSKELVNMIVAQRNYQSNAQTIKTQDQILNTLVNLR
notes: FlgE, flagellar hook protein, Salmonella; also called hook protein FlgE
As to B1, the binding result is recorded as “binds”.
